According to patent US20140142040A1:
Where two headings read alike, the source gives them in different places.

How the values were obtained:
[1] = molecular target: T1, human activated protein C (human), P04070
T1 chain 1: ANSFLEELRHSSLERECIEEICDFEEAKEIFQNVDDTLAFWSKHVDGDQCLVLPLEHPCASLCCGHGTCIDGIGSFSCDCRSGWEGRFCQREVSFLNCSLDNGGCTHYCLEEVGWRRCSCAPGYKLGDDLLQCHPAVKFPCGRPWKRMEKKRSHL
T1 chain 2: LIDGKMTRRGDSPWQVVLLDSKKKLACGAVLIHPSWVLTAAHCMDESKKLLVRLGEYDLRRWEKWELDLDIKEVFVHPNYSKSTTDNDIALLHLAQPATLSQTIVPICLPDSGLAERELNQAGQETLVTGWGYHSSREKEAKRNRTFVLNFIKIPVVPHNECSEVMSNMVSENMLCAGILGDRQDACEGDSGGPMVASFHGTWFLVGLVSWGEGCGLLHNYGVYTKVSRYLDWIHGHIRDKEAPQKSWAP

[2] = molecular target: human factor XIa (human), P03951
[3] = molecular target: T2, human plasmin (human), P00747
T2 chain: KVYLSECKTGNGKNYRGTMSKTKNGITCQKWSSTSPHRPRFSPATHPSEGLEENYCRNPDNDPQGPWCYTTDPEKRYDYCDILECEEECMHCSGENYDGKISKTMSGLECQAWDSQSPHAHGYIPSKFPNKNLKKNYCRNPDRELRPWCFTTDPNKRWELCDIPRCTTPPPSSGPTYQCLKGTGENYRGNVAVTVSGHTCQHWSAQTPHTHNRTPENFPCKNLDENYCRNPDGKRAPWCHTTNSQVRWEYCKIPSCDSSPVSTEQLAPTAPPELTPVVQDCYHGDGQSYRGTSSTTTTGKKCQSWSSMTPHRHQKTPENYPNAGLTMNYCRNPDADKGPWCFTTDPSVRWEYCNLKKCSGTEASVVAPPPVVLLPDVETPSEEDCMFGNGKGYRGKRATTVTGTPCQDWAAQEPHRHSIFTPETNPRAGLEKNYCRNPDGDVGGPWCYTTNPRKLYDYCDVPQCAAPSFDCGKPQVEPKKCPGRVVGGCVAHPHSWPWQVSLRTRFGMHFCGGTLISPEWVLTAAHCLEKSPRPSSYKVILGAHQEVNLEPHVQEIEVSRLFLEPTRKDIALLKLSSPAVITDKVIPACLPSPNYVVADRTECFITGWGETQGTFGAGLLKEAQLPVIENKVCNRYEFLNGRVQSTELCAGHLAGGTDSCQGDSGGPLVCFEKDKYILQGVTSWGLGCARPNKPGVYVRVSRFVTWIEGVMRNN

[4] = molecular target: T1, human activated protein C (human), …; assay: cell-based or functional assay
[5] = molecular target: T1, human activated protein C (human), …
[6] = molecular target: T1, human activated protein C (human), …

B1: DrKIn-I (Daboia russelii Kunitz Inhibitor-I), A8Y7N4 25-90 (protein)
chain: QDRPKFCNLAPESGRCRGHLRRIYYNPDSNKCEVFFYGGCGGNDNNFETRKKCRQTCGAPRKGRPT
modifications: not checked
**Q.** With B1 as the binder, how does the Kd [1] read?
**A.** The Kd was 2.6 nM.

**Q.** And the koff [1]?
**A.** Its koff is 0.034 s⁻¹.

**Q.** What about the kon [1] of the same binder?
**A.** The kon was 1.3e+07 M⁻¹ s⁻¹.

**Q.** What about the Ki [2] of the same binder?
**A.** Its Ki is 1.33 nM.

**Q.** And the fold of Ki against the Ki for APC inhibition [2]?
**A.** The fold of Ki against the Ki for APC inhibition was greater than 25 fold.

**Q.** And the Ki [3]?
**A.** Its Ki is 1.56 nM.

**Q.** What about the fold of Ki against the Ki for APC inhibition [3] of the same binder?
**A.** Its fold of Ki against the Ki for APC inhibition is greater than 25 fold.

**Q.** What about the fold reduction of the IC50 by heparin [4] of the same binder?
**A.** The fold reduction of the IC50 by heparin was 25 fold.

**Q.** What about the kon [5] of the same binder?
**A.** Its kon is 1.7e+07 M⁻¹ s⁻¹.

**Q.** What about the Ki [6] of the same binder?
**A.** Its Ki is 0.053 nM.
